T1: mouse odorant receptor OREG (Mus musculus, UniProt Q920P2)
T1 construct: expressed in transfected cells; host or cells: 293T cells (with or without co-transfected REEP1/RTP1/RTP2) and Hana3A cells (293T stably expressing mouse REEP1, RTP1, RTP2, Galpha-olf)
T1 sequence (Q920P2 1-313): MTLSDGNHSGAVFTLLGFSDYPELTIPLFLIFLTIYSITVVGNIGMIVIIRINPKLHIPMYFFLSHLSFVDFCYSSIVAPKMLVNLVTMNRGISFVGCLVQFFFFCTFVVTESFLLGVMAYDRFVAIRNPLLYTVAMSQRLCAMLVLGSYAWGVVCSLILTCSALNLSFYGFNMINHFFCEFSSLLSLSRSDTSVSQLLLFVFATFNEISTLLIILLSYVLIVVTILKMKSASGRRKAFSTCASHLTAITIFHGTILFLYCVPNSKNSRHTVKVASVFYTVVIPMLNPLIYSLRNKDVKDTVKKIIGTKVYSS


Experiments:
olfr62 = experiment: CRE-luciferase reporter gene assay, olfr62; type: cell-based, mouse; conditions: Hana3A cells
Experimental: Four ORs (S6/79, S18, S46 and S50) previously assayed using other techniques (see, e.g., Malnic, B., et al. (1999) Cell 96, 713-723; herein incorporated by reference in its entirety) were tested against an assay panel of aliphatic alcohols, aldehydes and acids and some other odorants. Additionally, five “orphan” class I ORs (MOR23-1, MOR31-4, MOR31-6, MOR32-5 and MOR32-11) whose cognate ligands were unknown were tested. At a suprathreshold concentration of 100 uM, all these ORs were odorant selective, responding to only a small subset of the odorants tested (see FIG. 11A). This specificity was retained at lower, more physiologically relevant concentrations. Many of these ORs responded to odorants present in micromolar concentrations. The cell-surface expression of these ORs by living-cell immunofluorescence were evaluated. Some ORs (S18, MOR31-4, MOR31-6 and MOR32-5) were strongly expressed while other ORs (S6, S50, MOR23-1, MOR32-11) were weakly expressed (see FIG. 12). The present invention is not limited to a particular mechanism. Indeed, an understanding of the mechanism is not necessary to practice the present invention. […] Finally, two additional orphan class II ORs, MOR203-1 and olfr62, were tested against a panel of 139 odorants. […] Olfr62 responded to coumarine and piperonal (see FIG. 11C). […] When parental 293T cells for these ORs were used in this luciferase assay, little or no response to the odorants was observed. The present invention is not limited to a particular mechanism. Indeed, an understanding of the mechanism is not necessary to practice the present invention.
Dual-Glo system (Promega) for luciferase assay was used. CRE-Luciferase (Stratagene) was used to measure the receptor activities. Renilla luciferase driven by constitutively active SV40 promoter (pRL-SV40: Promega) was used as an internal control. Cells were plated on poly-D-lysine coated 96 well plates (BIOCOAT, Beckton Dickinson). After 8 hours (for experiments shown in FIGS. 8B and 8C) or 12 hours (for experiments shown in FIG. 8D and FIG. 11) after transfection, the medium was replaced with CD293 chemically defined medium (Invitrogen) and the plates were incubated for one hour at 37 degrees C. The medium was replaced with 50 ul of odorant solutions dissolved in CD293 and incubated for 10 hours (for experiments shown in FIGS. 8B and 8C) or 4 hours (for experiments shown in FIG. 8D and FIG. 11) at 37 degrees C. The manufacture's protocol for measuring luciferase and Renilla luciferase activities was followed. Luminescence was measured using Wallac Victor 1420 (Perkin-Elmer). Normalized luciferase activity was calculated as [Luc (N)-Luc (0)]/RL (N), where Luc (N)=Luminescent count of a certain well, Luc (0)=Luminescent count without odorant for each OR, and RL (N)=Luminescent count of Renilla Luciferase of each well. For cAMP assays, cells were plated onto 24-well plate. […]. Prism software (Graphpad) was used for data analysis. […]

MOR203-1 = experiment: Living-cell staining of cell-surface MOR203-1; type: cell-based, mouse; conditions: accessory protein co-transfected in 293T cells
From the text: After hypothesizing that mammalian ORs require accessory protein(s) for functional cell surface expression, a search was instituted for detecting such molecule(s). Long-SAGE (serial analysis of gene expression) libraries (see, e.g., Saha, S., et al., (2002) Nat Biotechnol 20, 508-512; herein incorporated by reference in its entirety) were constructed from single olfactory neurons as well as neurons from the vomeronasal organ and genes were collected that are expressed by these neurons. To identify candidate genes expressed by the olfactory neurons Digital Differential Display (see, e.g., http://www, followed by, .ncbi.nlm.nih.gov/UniGene/info_ddd.shtml) was also used. Candidate genes were investigated for ORFs that encode membrane associated proteins. Genes were selected with similarities to known chaperones and cloned the cDNAs from olfactory epithelium cDNAs. The mRNA expression of each gene was verified by in situ hybridization. After isolating and subcloning into mammalian expression vectors, each cDNA together with a mouse OR (MOR203-1) tagged with a 20 N-terminal amino acids of rhodopsin (Rho-tag), was transfected into 293T cells. We measured whether these clones had any effect on the cell-surface expression of ORs by staining living cells using antibodies against the Rho-tag (see, e.g., Laird, D. W., and Molday, R. S. (1988) Invest Opthalmol Vis Sci 29, 419-428; herein incorporated by reference in its entirety). When MOR203-1 was transfected alone, antibody staining detected only faint cell-surface expression in less than 1% of the cells. A schematic diagram outlining the screening procedure utilized with the present invention is provided at FIG. 1.
293T cells were maintained in minimal essential medium containing 10% fetal bovine serum (M10). Lipofectamine 2000 (Invitrogen) was used for transfection. In live-cell staining, 16 hours after transfection, cells were incubated in M10 containing anti rhodopsin antibody, 4D2 (see, e.g., Laird, D. W., and Molday, R. S. (1988) Invest Opthalmol V is Sci 29, 419-428; herein incorporated by reference in its entirety) and 15 mM NaN3 at 4 degrees C. for 1 hour. After washing, cells were incubated with Cy3-conjugated anti mouse IgG (Jackson Immunologicals), washed and mounted. For FACS analysis, 4D2 and PE-conjugated anti mouse IgG (Jackson Immunologicals) were used to monitor the Rho tagged receptor expression. Anti HA rabbit antibodies (Sigma) and Alexa 488 conjugated anti rabbit IgG (Molecular Probes) was used to stain the HA-β2 adrenergic receptor. To establish the Hana3a cells, 1 ug/ml of puromycin was used for selection. 96 colonies were picked and assayed using luciferase assay using OREG.

[1] = target: T1, mouse odorant receptor OREG; experiment: CRE-luciferase reporter gene assay, OREG; type: cell-based; conditions: 293T cells; compared to OR alone or control pCI
From the text: Poor odorant evoked signaling activity in heterologous cell culture systems expressing ORs has been attributed to the poor cell surface expression of ORs. The identification of REEP and/or RTP allowed a direct assessment of this issue. A luciferase reporter gene assay was employed in which a cAMP responsive element (CRE) mediated luciferase gene expression (see FIG. 8A). Because OR activation leads to an increase in cAMP, activation of the mouse odorant receptor OREG by its ligand eugenol was measured in the presence and absence of REEP and/or RTP (see, e.g., Kajiya, K., et al. (2001) J Neurosci 21, 6018-6025; Touhara, K., et al., (1999) Proc Natl Acad Sci USA 96, 4040-4045; each herein incorporated by reference in their entireties). As reported previously, eugenol increased levels of OREG dependent luciferase activity (see, e.g., Katada, S., et al. (2003) Biochem Biophys Res Commun 305, 964-969; herein incorporated by reference in its entirety).
To facilitate analysis of odorant-OR interactions, 293T cell lines were established which stably express REEP1, RTP1, RTP2 and Gαolf, the G protein alpha subunit that couples to OR (see, e.g., Belluscio, L., et al. (1998) Neuron 20, 69-81; Jones, D. T., and Reed, R. R. (1989). Science 244, 790-795; each herein incorporated by reference in their entireties). To establish such cells, linearized expression vectors containing mouse REEP1, RTP1, RTP2 and Gαolf ORFs were transfected into 293T cells with PGK-Pac (puromycin resistant gene) (see, e.g., Watanabe, S., et al. (1995) Biochem Biophys Res Commun 213, 130-137; herein incorporated by reference in its entirety). […] Enhanced cell-surface expression was observed when OREG or other ORs were transfected in Hana3A cells and immunostained (see FIG. 10). […] Expression of Gαolf alone in 293T cells had little or no effect on OR activation using this assay.
Dual-Glo system (Promega) for luciferase assay was used. CRE-Luciferase (Stratagene) was used to measure the receptor activities. Renilla luciferase driven by constitutively active SV40 promoter (pRL-SV40: Promega) was used as an internal control. Cells were plated on poly-D-lysine coated 96 well plates (BIOCOAT, Beckton Dickinson). After 8 hours (for experiments shown in FIGS. 8B and 8C) or 12 hours (for experiments shown in FIG. 8D and FIG. 11) after transfection, the medium was replaced with CD293 chemically defined medium (Invitrogen) and the plates were incubated for one hour at 37 degrees C. The medium was replaced with 50 ul of odorant solutions dissolved in CD293 and incubated for 10 hours (for experiments shown in FIGS. 8B and 8C) or 4 hours (for experiments shown in FIG. 8D and FIG. 11) at 37 degrees C. The manufacture's protocol for measuring luciferase and Renilla luciferase activities was followed. Luminescence was measured using Wallac Victor 1420 (Perkin-Elmer). Normalized luciferase activity was calculated as [Luc (N)-Luc (0)]/RL (N), where Luc (N)=Luminescent count of a certain well, Luc (0)=Luminescent count without odorant for each OR, and RL (N)=Luminescent count of Renilla Luciferase of each well. For cAMP assays, cells were plated onto 24-well plate. […]. Prism software (Graphpad) was used for data analysis.

| Molecule | response of olfr62 to odorant (luciferase) (olfr62) | cell surface expression of MOR203-1 (MOR203-1) | OREG activity by luciferase, accessory protein co-expressed [1] |
| --- | --- | --- | --- |
| O=C1Cc2ccccc2O1 [2-coumaranone, 2-Coumaranone] | preferred ligand |  |  |
| O=c1ccc2ccccc2o1 [coumarin, Coumarin] | responded |  |  |
| O=Cc1ccc2c(c1)OCO2 [piperonal, Piperonal] | responded |  |  |
| RTP2: a close relative of RTP1; murine SEQ ID NO: 34, human SEQ ID NO: 38 (protein, listed as Mus musculus) MSTSLTTCEWKKVFYEKMEVAKPADSWELIIDPTLKPNELGPGWKQYLEQHASGRFHCSWCWHTWQSANVVILFHMHLDRAQRVGSVRMRVFKQLCYQCGTSRLDESSMLEENIEGLVDNLITSLREQCYDEDGGQYRIHVASRPDSGLHRSEFCEACQEGIVHWKPSEKLLEEDAAYTDASKKKGQAGFISSFFSFRWCLFWGTLCLVIVYLQFFRGRSGFL |  | also enhanced cell surface expression | enhanced luciferase activities compared to OR alone |
| RTP4: other member of the RTP family; murine SEQ ID NO: 36 (protein, listed as Mus musculus) MLFPDDFSTWEQTFQELMQEEKPGAKWSLHLDKNIVPDGAALGWRQHQQTVGRFQCSRCCRSWTSAQVMILCHMYPDTLKSQGQARMRIFGQKCQKCFGCQFETPKFSTEIIKRILNNLVNYILQRYYGHRKIALTSNASLGEKVTLDGPHDTRNCEACSLNSHGRCALAHKVKPPRSPSPLPNSSSPSKSCPPPPQTRNTDFGNKTLQDFGNRTFQGCREPPQREIEPPLFLFLSIAAFALFSLFTR |  | not observed | did not produce a significant increase |
| REEP2: other member of the REEP family; murine SEQ ID NO: 22 (protein, listed as Mus musculus) MVSWIISRLVVLIFGTLYPAYSSYKAVKTKNVKEYVKWMMYWIVFAFFTTAETLTDIILSWFPFYFELKIAFVIWLLSPYTKGSSVLYRKFVHPTLSNKEKEIDEYITQARDKSYETMMRVGKRGLNLAANAAVTAAAKGQGVLSEKLRSFSMQDLTLIRDEDALPLQGPDGRLQPGPVGLLDTIEDLGDEPALSLRSSTSQPDPRTETSEDDLGDKAPKRTKPIKKVPRAEPPASKTLKTRPKKKSSGGGDSA |  | not observed |  |

Reference: patent publication US7838288B2, “Modulators of odorant receptors” (Duke University, priority 2004, dated 2010)
